“Also recorded” adds a separate entry of the source.
Tests used:
Assay type in all cases: cell-based
[1] = target: T1, CCR7 (Homo sapiens, UniProt P32248); assay: SelectScreen chemokine receptor U2OS agonist/antagonist assay; details: CCR7 expressing U2OS cells
T1 construct: expressed in transfected cells
T1 sequence (P32248 25-378): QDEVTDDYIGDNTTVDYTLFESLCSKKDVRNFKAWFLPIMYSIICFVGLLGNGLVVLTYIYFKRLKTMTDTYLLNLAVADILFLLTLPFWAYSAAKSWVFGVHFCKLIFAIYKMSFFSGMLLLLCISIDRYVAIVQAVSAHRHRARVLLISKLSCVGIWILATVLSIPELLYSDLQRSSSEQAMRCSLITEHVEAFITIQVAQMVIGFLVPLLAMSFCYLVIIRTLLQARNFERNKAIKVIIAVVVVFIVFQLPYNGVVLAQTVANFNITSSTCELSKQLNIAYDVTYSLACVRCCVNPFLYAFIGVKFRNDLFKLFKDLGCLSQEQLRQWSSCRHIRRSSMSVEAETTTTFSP
Procedure: (§1) Peptides SG-3-00802 and SG-3-05021 were screened for agonist and antagonist activity of the chemokine receptors CCR7, CXCR3, and CXCR4.
(§2) In agonist assays, chemokine receptor expressing U2OS cells are thawed and resuspended in Assay Media (DMEM, 1% dialyzed FBS, 25 mM HEPES pH 7.3, 0.1 mM NEAA, 100 U/mL/100 μg/mL Pen/Strep) to a concentration of 312,500 cells/mL. 4 μL of a 10×serial dilution of I-TAC (control agonist starting concentration, 500 nM) or compounds are added to appropriate wells of a 384-well TC-Treated assay plate. 32 μL of cell suspension (10,000 cells) is added to each well. 4 μL of Assay Media is added to all wells to bring the final assay volume to 40 μL. The plate is incubated for 16-24 hours at 37° C./5% CO2 in a humidified incubator. 8 μL of 1 μM Substrate+Solution D Loading Solution is added to each well and the plate is incubated for 2 hours at room temperature. The plate is read on a fluorescence plate reader.
(§3) In antagonist assays, CXCR3-bla U2OS cells were thawed and prepared as described above for the Agonist assay. 4 μL of 10×compounds or assay media was added to appropriate wells of a TC-Treated assay plate. 32 μL of cell suspension was added to the wells and pre-incubated at 37° C./5% CO2 in a humidified incubator with compounds and control antagonist titration for 30 minutes. 4 μL of 10×control agonist I-TAC at the pre-determined EC80 concentration is added to wells containing the control antagonist or compounds. The plate is incubated for 16-24 hours at 37° C./5% CO2 in a humidified incubator. 8 μL of 1 μM Substrate+Solution D Loading Solution is added to each well and the plate is incubated for 2 hours at room temperature. The plate is read on a fluorescence plate reader.

[2] = target: T2, CXCR4 (Homo sapiens, UniProt P61073); assay: as above; details: CXCR4 expressing U2OS cells
T2 construct: expressed in transfected cells
Procedure: as §1, §2, §3

[3] = target: T1, CCR7; assay: PathHunter β-Arrestin GPCR assay (gpcrMAX); details: vehicle DMSO = 0%, control ligand = 100%
Text: (§4) The PathHunter® β-Arrestin Assay monitored activation of a panel of 168 G-protein coupled receptors (GPCRs) with […] activation of the GPCR in agonist and antagonist mode.
(§5) where the test sample is the peptide, the vehicle control=DMSO (0% activity), and the control ligand=control compound (100% activity).
(§6) Peptides SG-3-00802 and SG-3-05021 were identified as an agonist, an antagonist, a PAM (Positive Allosteric Modulator), or an inverse-agonist. Agonist, antagonist, PAM, and inverse-agonist were identified according to the guidelines in Table 18. The basal activity/noise is a % activity of −20% to 20% for both agonist and antagonist modes. A PAM (Positive Allosteric Modulator) binds to a receptor, at a different site than the agonist, to change the receptor's response to the agonist. An inverse-Agonist is a binding partner with agonistic shutting down of basal activity in the cell. An antagonist antagonizes the activity of a particular binding partner.

[4] = target: T3, CXCR3 (Homo sapiens, UniProt P49682); assay: PathHunter β-Arrestin GPCR assay (gpcrMAX); details: vehicle DMSO = 0%, control ligand = 100%
T3 sequence (P49682 1-368): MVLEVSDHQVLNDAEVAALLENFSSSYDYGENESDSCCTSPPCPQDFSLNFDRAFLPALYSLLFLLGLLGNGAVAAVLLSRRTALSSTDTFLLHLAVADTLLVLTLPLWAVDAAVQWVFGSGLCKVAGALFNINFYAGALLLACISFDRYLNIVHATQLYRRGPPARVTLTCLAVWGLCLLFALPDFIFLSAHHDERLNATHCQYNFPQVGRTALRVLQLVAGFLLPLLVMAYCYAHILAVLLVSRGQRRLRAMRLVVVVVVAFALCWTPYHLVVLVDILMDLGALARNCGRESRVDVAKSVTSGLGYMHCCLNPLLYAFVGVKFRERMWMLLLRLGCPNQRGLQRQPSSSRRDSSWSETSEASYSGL
Text: as §4, §5, §6

[5] = target: T2, CXCR4; assay: PathHunter β-Arrestin GPCR assay (gpcrMAX); details: vehicle DMSO = 0%, control ligand = 100%
Text: as §4, §5, §6

[6] = target: T3, CXCR3; assay: SelectScreen chemokine receptor U2OS agonist/antagonist assay; parameters: host or cells: CXCR3-bla U2OS; details: CXCR3-bla U2OS cells; for SelectScreen Antagonist Mode: control agonist I-TAC (CXCL11) at EC80
Procedure: as §1, §2, §3
Activity assays for CXCR4, CXCR3, and CCR7 were performed in agonist and antagonist mode for both SG-3-00802 and SG-3-05021 peptides. […] SG-3-00802 and SG-3-05021 may allow for a mechanism to enhance CXCR3 activation already shown to be a critical pathway in numerous publications as mediating anti-tumor treatment.

T2 sequence (P61073 whole entry): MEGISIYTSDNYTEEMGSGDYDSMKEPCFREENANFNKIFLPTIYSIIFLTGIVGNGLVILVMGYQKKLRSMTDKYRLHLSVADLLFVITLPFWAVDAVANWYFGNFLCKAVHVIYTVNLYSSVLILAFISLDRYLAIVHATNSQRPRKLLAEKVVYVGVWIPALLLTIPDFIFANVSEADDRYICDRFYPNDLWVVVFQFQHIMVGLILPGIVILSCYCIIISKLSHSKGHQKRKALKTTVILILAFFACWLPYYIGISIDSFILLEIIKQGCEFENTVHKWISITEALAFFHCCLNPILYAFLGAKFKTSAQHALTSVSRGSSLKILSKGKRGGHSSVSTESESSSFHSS

Sequence | SelectScreen Agonist Mode [1] | SelectScreen Agonist Mode [2] | % Agonist Activity (gpcrMAX Agonist Mode) [3] | % Antagonist Activity (gpcrMAX Antagonist Mode) [3] | % Agonist Activity (gpcrMAX Agonist Mode) [4] | % Antagonist Activity (gpcrMAX Antagonist Mode) [4] | % Agonist Activity (gpcrMAX Agonist Mode) [5] | % Antagonist Activity (gpcrMAX Antagonist Mode) [5] | SelectScreen Agonist Mode [6] | SelectScreen Antagonist Mode [6] | SelectScreen Antagonist Mode [2]
LGKTDWIEKYFKVKKEKIDKMQRFLQG [SG-3-05021, peptide from bacteroides.clarus.dsm.22519] | no agonistic activity and No | no agonistic activity and No | 0% | −18% | −4% | −20% | 1% | 10% | no agonistic activity and No | sensitized CXCR3; also recorded: Sensitizer | –
MKVRPSVKPMCEKCKIIRRKGRVMVICENPKHKQRQG [SG-3-00802, peptide from oscillibacter.sp t_155102] | weak agonistic activity and No | no agonistic activity and No | – | – | – | – | – | – | weak agonistic activity and No | potent reverse antagonistic activity (sensitization); also recorded: sensitized CXCR3; also recorded: Sensitizer | moderate antagonistic activity and no antagonistic activity and Yes

Source: patent US20230272016A1, “PEPTIDES FOR IMMUNOTHERAPY” (Second Genome, Inc., priority 2020, published 2023)
